The values below come from patent US20180185504A1 (Regeneron, published 2018).

B1: H1H6782P-mc-VC-PAB-MMD (antibody, human IgG1, V domains shown)
VH: EVQLVESGGGLVQPGRSLRLSCAASGFTFDDYAMHWVRQAPGKGLEWVSGIIWNSGHIGYGDSVKGRFTISRDNAKKSLYLQMNSLRAEDTALYYCARDSGRYQSYFDYWGQGTLVTVSS
VL: DIQMTQSPSTLSASVGDRVTITCRASHIISSWLAWYQQKPGKAPKVLIFKASSLESGVPSRFSGSGSGTEFTLTISSLQPDDFATYYCQQYNTYSRTFGQGTKVEIK
modifications: MMD conjugated through mc-VC-PAB linker; attachment residues not stated
B2: H1H6782P-mc-VC-PAB-MeNHC3-May (antibody, human IgG1, V domains shown)
VH: B1 VH
VL: B1 VL
modifications: MeNHC3-May conjugated through mc-VC-PAB linker; attachment residues not stated
B3: H1H6953N-mc-VC-PAB-MMD (antibody, human IgG1, V domains shown)
VH: EVQLLESGGGLVQPGGTLRLSCAASGFTFSAYAMSWVRQAPGKGLEWVSSINVRAGDTYYADSVKGRFTISRDNSKNTLFLLMNSLRAEDTAAYYCAKARYSSNWGFDFWGQGTLVTVSS
VL: DIVMTQSPDSLTVSLGARTTINCQSSQTILHSSNNHNYLAWYQQKPGLPPKLLIYWSSTRESGVPDRFSGSGSGTDFTLTISSLQAEDVAIYYCQQYSNTPYTFGQGTKLEIN
modifications: MMD conjugated through mc-VC-PAB linker; attachment residues not stated
B4: H1H6953N-mc-VC-PAB-MeNHC3-May (antibody, human IgG1, V domains shown)
VH: B3 VH
VL: B3 VL
modifications: MeNHC3-May conjugated through mc-VC-PAB linker; attachment residues not stated
B5: H1H6975P-mc-VC-PAB-MMD (antibody, human IgG1, V domains shown)
VH: EVHLVESGGGLVQPGGSLRLSCAASGFTFSSYEMNWVRQTPGKGLEWISHISSRSVIIYYADSVKGRFTISRDNAKNSLFLQMNSLRAEDTAVYFCAGITIFGIPEYWGQGTLVTVSS
VL: EIVLTQSPATLSLSPGERATLSCRASQSVSSYFAWYQQKPGQAPRLLIYDASSRATGIPTRFSGSGSGTDFTLTISSLEPEDFAVYYCQQRSSWPITFGQGTRLEIK
modifications: MMD conjugated through mc-VC-PAB linker; attachment residues not stated
B6: H1H6958N2-SPDB-DM4 (antibody, human IgG1, V domains shown)
VH: QVQLVESGGGVVQPGRSLRLSCGASGFTFRNYGMQWVRQGPGKGLEWVTLISFDGNDKYYADSVKGRFTISRDNSKNTLFLQMNSLRTEDTAVYYCARGGDFDYWGQGTLVTVSS
VL: DIQMTQSPSSLSASVGDRVTITCRASQDIRKDLGWYQQKPGKAPKRLIYAASSLHSGVPSRFSGSGSGTEFTLTISSLQPEDFATYYCLQHNSYPMYTFGQGTKLEIK
modifications: DM4 conjugated through SPDB linker; attachment residues not stated
B7: H1H6959N2-DM1 (antibody, human IgG1, V domains shown)
VH: EVQLVESGGGLVQPGRSLRLSCAASGFTFDDYAMHWVRQAPGKGLEWVSGISWHSGIIGYADSVKGRFTISRDNAKNSLYLQMNSLRTEDAALYYCAKIGSYFYFDSWGQGTLVTVSS
VL: EIVLTQSPGTLSLSPGERATLSCRASQSVSSNYLAWYQQKPGQAPRLLIYGASSRATGIPDRFSGSGSGTDFTLTISRLEPEDFAVYYCQQFGSSGYTFGQGTNLEIK
modifications: DM1 conjugated through SMCC linker; attachment residues not stated
B8: H1H6803P-DM1 (antibody, human IgG1, V domains shown)
VH: EVQLVESGGGVVRPGGSLRLSCAASGFKFDDYGMTWVRHVPGKGLEWVSGINWNGGRTGYTDSVKGRFTISRDNAKNSLYLQMNSLRAEDTALYHCAGARRDAFDIWGQGTMVTVSS
VL: DIQMTQSPSSLSASIGDRVTITCRASQNIIKYLNWYQQNAGKAPKLLIYTASSLQSGVPSRFSGSGSGTDFTLTISSLQPEDFATYYCQQSSSSPYTFGQGTKLEIK
modifications: DM1 conjugated through SMCC linker; attachment residues not stated
B9: H1H6800P-DM1 (antibody, human IgG1, V domains shown)
VH: EVQLVESGGGLVQPGRSLRLSCAASGFTFDGYAMHWVRQGPGKGLEWVSGISWYSDTLGYADSVKGRFTISRDNAKNSLYLQMNSLRTEDTAFYYCAKISSSGWAFDYWGQGTLVTVSS
VL: EIVLTQSPGTLSLSPGERATLSCRASHSVSSAYLAWYQQKPGQTPRLLIYGTSSRATGIPDRFSGSGSGTDFTLTISRLEPEDFAVYYCQQYGSSPLFTFGPGTKVDIK
modifications: DM1 conjugated through SMCC linker; attachment residues not stated

For the first test, the target named is T1, human prolactin receptor (PRLR) (human, UniProt P16471 25-622).
T1 sequence: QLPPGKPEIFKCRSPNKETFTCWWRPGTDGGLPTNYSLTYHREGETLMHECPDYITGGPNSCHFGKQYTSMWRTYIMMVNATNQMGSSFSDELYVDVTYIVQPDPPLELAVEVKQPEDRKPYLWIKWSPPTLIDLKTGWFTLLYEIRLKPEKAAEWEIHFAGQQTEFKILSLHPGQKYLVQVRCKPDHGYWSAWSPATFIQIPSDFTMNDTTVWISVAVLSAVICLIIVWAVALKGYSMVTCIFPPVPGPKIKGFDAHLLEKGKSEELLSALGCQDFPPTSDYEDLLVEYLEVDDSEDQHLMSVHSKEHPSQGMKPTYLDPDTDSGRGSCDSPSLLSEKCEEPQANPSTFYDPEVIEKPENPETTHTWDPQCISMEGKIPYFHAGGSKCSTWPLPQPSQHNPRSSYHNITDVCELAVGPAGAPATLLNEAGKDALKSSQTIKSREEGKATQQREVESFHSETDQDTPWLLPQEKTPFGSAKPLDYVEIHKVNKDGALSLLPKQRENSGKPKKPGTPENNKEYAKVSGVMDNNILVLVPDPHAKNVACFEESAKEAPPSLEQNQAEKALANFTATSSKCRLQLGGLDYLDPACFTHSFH
Kind of test: cell-based or functional assay.
On to B1, for which the “% Kill, MCF7/ATCC cells” value is 50%; the “% Kill, MCF7/PRLR cells” value was found to be 90%; the “IC50, cell viability, MCF7/ATCC cells” value is 200 nM; the “IC50, cell viability, MCF7/PRLR cells” value stood at 0.3 nM.

In the case of B2, the “% Kill, MCF7/ATCC cells” value amounted to 50%; the “% Kill, MCF7/PRLR cells” value was 80%; the “IC50, cell viability, MCF7/ATCC cells” value worked out at 250 nM; the “IC50, cell viability, MCF7/PRLR cells” value was determined as 0.2 nM.

With B3, the “% Kill, MCF7/ATCC cells” value was 50%; the “% Kill, MCF7/PRLR cells” value amounted to 90%; the “IC50, cell viability, MCF7/ATCC cells” value is 300 nM; the “IC50, cell viability, MCF7/PRLR cells” value was 0.2 nM.

Consider B4, for which the “% Kill, MCF7/ATCC cells” value turned out to be 60%; the “% Kill, MCF7/PRLR cells” value is 80%; the “IC50, cell viability, MCF7/ATCC cells” value came to 150 nM; the “IC50, cell viability, MCF7/PRLR cells” value stood at 0.2 nM.

Regarding B5, the “% Kill, MCF7/ATCC cells” value came to 50%; the “% Kill, MCF7/PRLR cells” value was determined as 90%; the “IC50, cell viability, MCF7/ATCC cells” value stood at 150 nM; the “IC50, cell viability, MCF7/PRLR cells” value came to 0.2 nM.

In the case of B6, the “% Kill, MCF7/ATCC cells” value came to 80%; the “% Kill, MCF7/PRLR cells” value amounted to 90%; the “IC50, cell viability, MCF7/ATCC cells” value was determined as 25 nM; the “IC50, cell viability, MCF7/PRLR cells” value was found to be 0.8 nM.

In another test the target is T1, human prolactin receptor (PRLR). The experiment in a line: cell-based or functional assay. The source holds these as a separate data set.
Take B1: the “% Kill, T47D cells” value came to 90% and the “IC50, cell viability, T47D cells” value was 2 nM.

Regarding B2, the “% Kill, T47D cells” value came out at 90% and the “IC50, cell viability, T47D cells” value is 2 nM.

Regarding B3, the “% Kill, T47D cells” value was found to be 90% and the “IC50, cell viability, T47D cells” value amounted to 1 nM.

Consider B4, for which the “% Kill, T47D cells” value turned out to be 90% and the “IC50, cell viability, T47D cells” value is 1 nM.

Consider B5, for which the “% Kill, T47D cells” value was 90% and the “IC50, cell viability, T47D cells” value amounted to 3 nM.

Regarding B6, the “% Kill, T47D cells” value was determined as 100% and the “IC50, cell viability, T47D cells” value was 1 nM.

The target is the same in a further test. The experiment in a line: cell-based or functional assay. The source holds these as a separate data set.
As for B7, the “% Kill, 293/PRLR cells” value came to 95%; the “% Kill, PC3/PRLR cells” value came to 82%; the “IC50, cell viability, 293/PRLR cells” value stood at 4.82 nM; the “IC50, cell viability, PC3/PRLR cells” value amounted to 11.6 nM.

As for B8, the “% Kill, PC3/PRLR cells” value amounted to 70% and the “IC50, cell viability, PC3/PRLR cells” value was 2.32 nM.

For the molecule B9, the “% Kill, PC3/PRLR cells” value is 68% and the “IC50, cell viability, PC3/PRLR cells” value was 1.37 nM.

The target is the same in the next test. Kind of test: cell-based or functional assay. This is another data set of the same source.
Take B7: the “% Kill, MCF7/PRLR cells” value turned out to be 80%; the “% Kill, MCF7 cells” value amounted to 82%; the “% Kill, T47D cells” value was 71%; the “IC50, cell viability, MCF7/PRLR cells” value came out at 0.47 nM. Also, the “IC50, cell viability, MCF7 cells” value is 100 nM and the “IC50, cell viability, T47D cells” value was 48.9 nM.

For B8, the “% Kill, MCF7/PRLR cells” value was 84%; the “% Kill, MCF7 cells” value is 60%; the “% Kill, T47D cells” value came to 77%; the “IC50, cell viability, MCF7/PRLR cells” value stood at 0.44 nM. The “IC50, cell viability, MCF7 cells” value came to 150 nM and the “IC50, cell viability, T47D cells” value stood at 8.61 nM.

As to B9, the “% Kill, MCF7/PRLR cells” value amounted to 85%; the “% Kill, MCF7 cells” value amounted to 65%; the “% Kill, T47D cells” value came to 79%; the “IC50, cell viability, MCF7/PRLR cells” value stood at 0.4 nM. In addition, the “IC50, cell viability, MCF7 cells” value amounted to 150 nM and the “IC50, cell viability, T47D cells” value was found to be 3.2 nM.
